Data from patent publication US20230312722A1 (NONA BIOSCIENCES SUZHOU, published 2023).
Like-named read-outs stand apart in the source and are kept apart here. Blank lines part the entries; values can stand above or below the binder they belong to.

What was measured:
[1] = biological target: T1, human B7H4 on the cell surface (human, UniProt Q7Z7D3 25-282); test: FACS on SK-BR-3 cells; the printed number lies below the lowest concentration shown (0.03 nM)
T1 construct: whole, on cells; also called CHOK1/hu B7H4; B7H4 on SK-BR-3
T1 sequence (looked up): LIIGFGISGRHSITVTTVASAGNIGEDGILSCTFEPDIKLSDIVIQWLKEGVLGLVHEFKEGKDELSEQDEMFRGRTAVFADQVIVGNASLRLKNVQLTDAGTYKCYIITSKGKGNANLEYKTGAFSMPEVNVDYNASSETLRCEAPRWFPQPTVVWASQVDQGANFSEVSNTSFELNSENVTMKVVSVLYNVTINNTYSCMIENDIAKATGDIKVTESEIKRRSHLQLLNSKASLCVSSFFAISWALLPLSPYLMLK
Experimental: (§1) SK-BR-3 cells were digested. T cells were isolated using the human T cell isolation kit (Miltenyi, #130-096-535) as described in the method of the instruction, and resuspended with PBS containing 2% BSA. The cell density was adjusted to 1×10⁶ cells/mL. The cells were seeded in a 96-well V-bottom plate (Corning, #3894) at 100 μL/well, followed by the addition of test antibodies diluted in a 3-fold gradient at a concentration that was 2 times the final concentration, each at 100 μL/well. The cells were incubated at 4° C. for 2 h away from light. Thereafter, the cells in each well were rinsed twice with 100 μL of pre-cooled PBS containing 2% BSA, and centrifuged at 500 g at 4° C. for 5 min, and then the supernatant was discarded. Then each well was added with 100 μL of fluorescent secondary antibody (Alexa Fluor 488-conjugated AffiniPure Goat Anti-Human IgG, Fcγ Fragment Specific, Jackson, #109-545-098, diluted in a 1:500 ratio), and the plate was incubated away from light at 4° C. for 1 h. The cells in each well were washed twice with 100 μL of pre-cooled PBS containing 2% BSA, and centrifuged at 500 g at 4° C. for 5 minutes, and then the supernatant was discarded. Finally, the cells in each well were resuspended with 200 μL of pre-cooled PBS containing 2% BSA, and the fluorescence signal values were read using an ACEA Novocyte3000 flow cytometer.

CD3 on human T cells [2] = biological target: T2, CD3 on human T cells (human, UniProt P07766 23-207; P04234 22-171; P09693 23-182); test: FACS on human T cells; EC50 printed as n.d., curve still rising at 100 nM
T2 sequence (P07766 23-207 limits assumed, chain 1 of 3): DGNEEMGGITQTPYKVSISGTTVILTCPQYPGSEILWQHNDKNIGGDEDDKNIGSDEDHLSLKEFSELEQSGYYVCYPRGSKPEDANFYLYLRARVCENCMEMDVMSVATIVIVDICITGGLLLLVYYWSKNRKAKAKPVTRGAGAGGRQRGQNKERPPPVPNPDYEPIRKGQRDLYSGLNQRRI
T2 sequence (P04234 22-171 limits assumed, chain 2 of 3): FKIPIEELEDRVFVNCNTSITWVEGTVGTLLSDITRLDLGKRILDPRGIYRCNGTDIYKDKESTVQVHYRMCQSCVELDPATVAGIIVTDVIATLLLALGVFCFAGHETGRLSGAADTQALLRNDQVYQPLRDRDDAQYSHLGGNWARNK
T2 sequence (P09693 23-182 limits assumed, chain 3 of 3): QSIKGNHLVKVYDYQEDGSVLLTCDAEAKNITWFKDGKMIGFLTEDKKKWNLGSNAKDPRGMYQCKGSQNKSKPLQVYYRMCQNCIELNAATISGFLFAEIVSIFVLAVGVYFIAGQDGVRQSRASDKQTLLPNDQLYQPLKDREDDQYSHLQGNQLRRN
Experimental: as §1

[3] = biological target: T1, human B7H4 on the cell surface; test: FACS on SK-BR-3 cells
Experimental: as §1

[4] = biological target: T1, human B7H4 on the cell surface; test: FACS on SK-BR-3 cells, expression supernatant at 1 X and 10X
[5] = biological target: T3, B7-H4 (Acro Biosystems, #B74-H82E2) (UniProt Q7Z7D3 29-258); test: BLI epitope competition; 1st Ab = row; competitor (2nd Ab) Control antibody 1; inhibition of the 2nd Ab signal
T3 construct: Bought protein; also called B7-H4 captured on SA sensor
T3 sequence (looked up): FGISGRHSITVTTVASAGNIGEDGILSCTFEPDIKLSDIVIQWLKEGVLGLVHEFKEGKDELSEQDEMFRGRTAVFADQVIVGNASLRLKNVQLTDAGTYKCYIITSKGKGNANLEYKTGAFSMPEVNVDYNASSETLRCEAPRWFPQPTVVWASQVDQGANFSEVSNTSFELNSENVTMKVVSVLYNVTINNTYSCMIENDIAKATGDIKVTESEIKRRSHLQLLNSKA
Experimental: (§2) Step one, acquisition of 100% signal of antibodies: B7-H4 (Acro Biosystems, #B74-H82E2-200 μg) was captured at a capture height of 0.25 nm using an SA sensor (Fortebio, #18-5019). The sensor was equilibrated in a buffer for 120 s and then immersed in each antibody diluted to 100 nM for 240 s, and the final signal of the antibody binding to B7-H4 was recorded as the 100% signal of the antibody. Step two, epitope competition experiment: B7-H4 was captured using an SA sensor at a capture height of 0.25 nm. The sensor was immersed in a primary antibody (at a concentration of 100 nM) for 240 s, and then the SA sensor was immersed in a mixture of the primary and secondary antibodies (both at a final concentration of 100 nM) for 240 s, and the difference in signals after immersion of the sensor in the antibody mixture was recorded as the signal of the antibody as the secondary antibody. The inhibition rate was calculated according to the following formula: […]

[6] = biological target: T3, B7-H4 (Acro Biosystems, #B74-H82E2); test: BLI epitope competition; 1st Ab = row; competitor (2nd Ab) PR002418; inhibition of the 2nd Ab signal
Experimental: as §2

[7] = biological target: T3, B7-H4 (Acro Biosystems, #B74-H82E2); test: BLI epitope competition; 1st Ab = row; competitor (2nd Ab) PR002421; inhibition of the 2nd Ab signal
Experimental: as §2

[8] = biological target: T3, B7-H4 (Acro Biosystems, #B74-H82E2); test: BLI epitope competition; 1st Ab = row; competitor (2nd Ab) Control antibody 2; inhibition of the 2nd Ab signal
Experimental: as §2

[9] = biological target: T4, Human B7H4 (his tag), Sino Biological #10738-H08H (human, UniProt Q7Z7D3 25-259); test: SPR (Biacore T200), antibody captured on Protein A, B7H4-his as analyte, 1:1 fit
T4 construct: extracellular domain; Bought protein; also called hB7H4-ECD-his
T4 sequence (looked up): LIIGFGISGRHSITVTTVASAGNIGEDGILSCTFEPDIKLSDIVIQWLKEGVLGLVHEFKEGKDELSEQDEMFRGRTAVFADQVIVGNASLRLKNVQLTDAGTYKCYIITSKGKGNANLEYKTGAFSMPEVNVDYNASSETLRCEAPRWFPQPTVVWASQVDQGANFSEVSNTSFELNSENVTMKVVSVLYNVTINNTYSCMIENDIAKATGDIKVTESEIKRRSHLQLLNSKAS
Experimental: 10×HBS-EP+ (GE Healthcare, #BR-1006-69) was diluted 10-fold and then taken as an experimental buffer. The flow rate was set at 10 μL/min, and Protein A was coupled to 4 channels of a chip CM5 (GE Healthcare, #BR-1005-30) through the following procedures: 1) the injection time was set to 800 s, and a fresh mixture of 50 mM NHS and 200 mM EDC was injected into the 4 channels in a volume ratio of 1:1; 2) Protein A was diluted to 20 μg/mL with sodium acetate (GE Healthcare, #BR-1003-50) at pH 4.5 and injected into each channel for 800 s; and 3) 1 M ethanolamine at pH 8.5 was injected for 800 s to block the remaining active carboxyl groups on the chip surface. After blocking, the instrument was equilibrated with 1×HBS-EP+buffer for 2 hours, and the final coupling level of Protein A was about 2000 RU.
A multi-cycle kinetics mode was set at Biacore T200, and each cycle included antibody capture, analyte binding and chip regeneration. […] Finally, 10 mM glycine-hydrochloric acid at pH 1.5 (GE Healthcare, #BR-1003-54) was injected at the same flow rate for 30 s to regenerate the chip.
The experimental results were analyzed using the Biacore T200 analysis software 2.0, with channel 1 subtracted as a reference channel and a 1:1 kinetic fitting model selected as an analysis model.

CD3 on human T cells [10] = biological target: T2, CD3 on human T cells; test: FACS on human T cells
Experimental: as §1

CD3 on human T cells [11] = biological target: T2, CD3 on human T cells; test: FACS on human T cells; remark: listed apart in the source
Experimental: as §1

CD3 on human T cells [12] = biological target: T2, CD3 on human T cells; test: FACS on human T cells; remark: listed apart in the source
Experimental: as §1

CD3 on human T cells [13] = biological target: T2, CD3 on human T cells; test: FACS on human T cells; remark: listed apart in the source
Experimental: as §1

EC50 [1]: 0.006 nM
Maximum MFI (CD3 on human T cells [2]): 73000
Maximum MFI [3]: 183000
B1: PR002994 (bispecific antibody, human IgG1, kappa, lambda, L234A L235A)
chain 1: EVQLLESGGGLVQPGGSLRLSCAASGFTFSTYAMNWVRQAPGKGLEWVSRIRSKYNNYATYYADSVKDRFTISRDDSKSTLYLQMNSLRAEDTAVYYCVRHGNFGNSYVSWFAYWGQGTLVTVSSASTKGPSVFPLAPSSKSTSGGTAALGCLVKDYFPEPVTVSWNSGALTSGVHTFPAVLQSSGLYSLSSVVTVPSSSLGTQTYICNVNHKPSNTKVDKKVEPKSC
chain 2: not shown
heavy: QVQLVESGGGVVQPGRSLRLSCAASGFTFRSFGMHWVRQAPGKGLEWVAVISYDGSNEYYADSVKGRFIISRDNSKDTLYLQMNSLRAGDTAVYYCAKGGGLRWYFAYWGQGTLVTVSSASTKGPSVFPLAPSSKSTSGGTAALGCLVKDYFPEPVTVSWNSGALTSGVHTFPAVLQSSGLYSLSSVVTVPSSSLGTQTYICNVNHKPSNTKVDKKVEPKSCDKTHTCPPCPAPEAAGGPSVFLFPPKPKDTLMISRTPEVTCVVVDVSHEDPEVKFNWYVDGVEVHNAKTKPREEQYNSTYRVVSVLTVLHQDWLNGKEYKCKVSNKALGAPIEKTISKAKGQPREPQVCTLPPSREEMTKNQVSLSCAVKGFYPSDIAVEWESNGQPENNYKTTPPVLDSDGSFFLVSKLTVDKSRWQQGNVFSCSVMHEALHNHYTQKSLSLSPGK
light: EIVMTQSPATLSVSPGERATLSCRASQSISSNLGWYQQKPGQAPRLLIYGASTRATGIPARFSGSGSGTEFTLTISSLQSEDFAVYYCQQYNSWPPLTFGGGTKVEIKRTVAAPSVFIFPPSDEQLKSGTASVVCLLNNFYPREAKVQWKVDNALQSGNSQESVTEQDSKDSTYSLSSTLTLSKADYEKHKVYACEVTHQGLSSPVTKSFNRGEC
notes: B7H4 x CD3, 2+1 asymmetric structure (structure 6): CD3 end from PR001924, two B7H4 Fabs from PR001476

binding result [4]: binds
B2: PR002405 (antibody, human IgG1, kappa, V domains shown)
VH: QVQLVESGGGVVQPGRSLRLSCAASGFTFRSFGMHWVRQAPGKGLEWVAVISYEGSNEYYADSVKGRFIISRDNSKDTLYLQMNSLRAGDTAVYYCAKGGGLRWYFAYWGQGTLVTVSS
VL: EIVMTQSPATLSVSPGERATLSCRASQSISSNLGWYQQKPGQAPRLLIYGASTRATGIPARFSGSGSGTEFTLTISSLQSEDFAVYYCQQYQSWPPLTFGGGTKVEIKR
notes: variant of PR001476 (H: D54E); also called PR002405 supernatant

Competitive inhibition rate (%) [5]: 96.6%
Competitive inhibition rate (%) [6]: 4.49%
Competitive inhibition rate (%) [7]: 6.32%
Competitive inhibition rate (%) [8]: 95.8%
Kd [9]: 4.45 nM
koff [9]: 0.00116 s⁻¹
kon [9]: 261000 M⁻¹ s⁻¹
B3: Control antibody 2 (PR002962) (antibody, human IgG1, kappa, V domains shown)
VH: QLQLQESGPGLVKPSETLSLTCTVSGGSIKSGSYYWGWIRQPPGKGLEWIGNIYYSGSTYYNPSLRSRVTISVDTSKNQFSLKLSSVTAADTAVYYCAREGSYPNQFDPWGQGTLVTVSS
VL: EIVMTQSPATLSVSPGERATLSCRASQSVSSNLAWYQQKPGQAPRLLIYGASTRATGIPARFSGSGSGTEFTLTISSLQSEDFAVYYCQQYHSFPFTFGGGTKVEIKR
notes: Anti-B7H4 IgG1 control antibody from WO2019040780A1 (FivePrime), Fc mutated on the basis of PR002961 to enhance ADCC

EC50 (CD3 on human T cells [10]): 7.5 nM
EC50 (CD3 on human T cells [11]): 7.5 nM
EC50 (CD3 on human T cells [12]): 6.1 nM
EC50 (CD3 on human T cells [13]): 7.5 nM
B4: PR001924 (antibody, V domains shown)
VH: EVQLLESGGGLVQPGGSLRLSCAASGFTFSTYAMNWVRQAPGKGLEWVSRIRSKYNNYATYYADSVKDRFTISRDDSKSTLYLQMNSLRAEDTAVYYCVRHGNFGNSYVSWFAYWGQGTLVTVSS
VL: QAVVTQEPSLTVSPGGTVTLTCRSSTGAVTTSNYANWVQQKPGQAPRGLIGGTNKRAPWTPARFSGSLLGDKAALTLLGAQPEDEAEYFCALWYSNLWVFGGGTKLTVLG
notes: also called PR001924 (αCD3 IgG)
